In assay [1] the target is end-labeled Ndc80 complex Nuf2 S2C Spc25 S154C (cysteine-light, concurrently labeled with Cy3 and Alexa Fluor 647, for single molecule FRET) (S. cerevisiae) (UniProt P40460). Description: single molecule three-color TIRF co-localisation; end-labeled Ndc80 complex and GFP-MIND pre-incubated 1:10 for 15 min at room temperature, then tethered by anti-penta-His antibody to lipid-coated coverslips; co-localisation of GFP with Cy3 and Alexa Fluor 647.

The target in assay [2] is Ndc80-MIND-GFP co-complex (S. cerevisiae) (UniProt P40460). Description: single molecule TIRF microscopy (residence time on microtubules); as a1, with free Spc24/Spc25 dimer (wild type or mutant) added in trans: sixtyfold excess over Broccoli-GFP, tenfold excess over Ndc80-MIND-GFP.
The target of assay [3] is taxol-stabilized microtubules (bovine brain tubulin) (bovine) (UniProt Q6B856). Description: single molecule TIRF microscopy (residence time on microtubules); fluorescent complexes in solution on taxol-stabilized microtubules; standard BRB80 buffer; mean residence time, error by bootstrapping.

free Spc24/Spc25 dimer, sequence (Q04477 whole entry): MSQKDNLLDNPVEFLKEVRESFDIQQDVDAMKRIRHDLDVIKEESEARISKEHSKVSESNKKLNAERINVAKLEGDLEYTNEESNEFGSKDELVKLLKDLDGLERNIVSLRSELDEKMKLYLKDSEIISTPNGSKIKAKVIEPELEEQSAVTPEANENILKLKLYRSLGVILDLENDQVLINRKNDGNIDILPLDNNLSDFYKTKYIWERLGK
free Spc24/Spc25 dimer, sequence (P40014 whole entry): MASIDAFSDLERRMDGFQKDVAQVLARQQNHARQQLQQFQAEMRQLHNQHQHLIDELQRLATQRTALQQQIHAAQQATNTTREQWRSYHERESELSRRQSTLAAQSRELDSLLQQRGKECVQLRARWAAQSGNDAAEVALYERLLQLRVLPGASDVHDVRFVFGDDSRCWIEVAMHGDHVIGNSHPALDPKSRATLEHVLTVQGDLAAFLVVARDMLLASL

“MIND complex carrying an N-terminal FLAG tag on Nsl1 and a C-terminal GFP on Mtw1 (from UniProt P39731 1-289; Q12143 1-216; P40568 1-576)” yielded a percent of the end-labeled Ndc80 complexes in co-complex with MIND (tenfold excess of GFP-MIND) in assay [1] of 33%.

For “free Spc24/Spc25 dimer (from UniProt Q04477 1-213; P40014 1-221) (complex)”, in assay [2], the mean residence time of the Ndc80-MIND-GFP co-complex on microtubules with a tenfold excess of the binder came out at 4.1 s.

As to “Ndc80-MIND-GFP co-complex (from UniProt P40460 1-691; P33895 1-451; Q04477 1-213; P40014 1-221; P39731 1-289; P40568 1-576; Q12143 1-216)”, the mean residence time on microtubules in assay [3] worked out at 9.8 s.

As for “Spc24/Spc25 V159D dimer (from UniProt Q04477 1-213; P40014 1-221) (complex)”, the mean residence time of the Ndc80-MIND-GFP co-complex on microtubules with a tenfold excess of the binder in assay [2] was 4.2 s.

Source of the values: publication PMC6516834.
